# In patent US20260217863A1, “ANTIBODY OR PEPTIDE BINDING SPECIFICALLY TO RNASE A, IMMUNOASSAY DEVICE AND METHOD FOR DETECTING RNASE A, AND METHOD FOR COLLECTING RNASE A” (UIF (University Industry Foundation), Yonsei University, priority 2022, published 2026):
# Numbering of substitutions follows the chain as printed.
# B1: Fv variant clone 5, surface-expressed on the outer membrane of E. coli (protein, part only; not given: AIDA-1 display anchor and linker, not shown: another chain or arm of the molecule; large carriers; small tags and cut ends)
# VH: EVQLVESAAEVRRPGASVKITCKASGYSFSTYGIQWMRQAPGQRPEWLGWIHAGTGGTKYSRKFQGRITITRDTSANTVYLDLNSLTSEDTAVYYCARCGPDSDVMTDFWGQGTTVTVSS
# B2: Fv variant clone 39, surface-expressed on the outer membrane of E. coli (protein, part only; not given: AIDA-1 display anchor and linker, not shown: another chain or arm of the molecule; large carriers; small tags and cut ends)
# VH: B1 VH with C99D, P101T, D102A, S103K, D104K, V105S, M106R, T107K, F109D
# B3: Fv variant clone 23, surface-expressed on the outer membrane of E. coli (protein, part only; not given: AIDA-1 display anchor and linker, not shown: another chain or arm of the molecule; large carriers; small tags and cut ends)
# VH: B1 VH with C99Y, D102V, S103G, D104R, M106K, T107R, F109D
# Target: Ribonuclease A (Type II-A) from bovine pancreas (bovine) (UniProt P61823)
# Test: flow cytometry, E. coli surface-displayed Fv, titration of fluorescently labeled RNase A, fit with an adsorption model
# Chain of Ribonuclease A (Type II-A) from bovine pancreas (bovine) (P61823 27-150): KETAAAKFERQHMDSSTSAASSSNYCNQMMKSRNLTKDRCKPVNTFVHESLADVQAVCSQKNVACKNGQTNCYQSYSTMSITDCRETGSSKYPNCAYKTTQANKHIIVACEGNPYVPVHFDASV
row,Kd [µM],Binder
1,23.8,B1
2,28.7,B2
3,29.4,B3

# Target: Ribonuclease A (Type II-A) from bovine pancreas (bovine) (UniProt P61823)
# Test: flow cytometry (FL1-H) of E. coli displaying the Fv variant, incubated with fluorescence-labeled RNase-A
"fluorescence intensity, at 3.125 µM fluorescence-labeled RNase-A [a.u.]","fluorescence intensity, at 6.25 µM fluorescence-labeled RNase-A [a.u.]","fluorescence intensity, at 12.5 µM fluorescence-labeled RNase-A [a.u.]","fluorescence intensity, at 25 µM fluorescence-labeled RNase-A [a.u.]","fluorescence intensity, at 50 µM fluorescence-labeled RNase-A [a.u.]","fluorescence intensity, at 100 µM fluorescence-labeled RNase-A [a.u.]",Binder
31.5,44.7,72.3,108,167,196,B1
15.5,19.9,23.3,31.8,37.8,51.9,B2
14,17.2,23.8,37.5,47.9,69.7,B3
